Laboratory results reported in paper doi:10.1101/049148.

Experiments:
[1] = target: Heh2-VN (budding yeast (endogenously tagged)) (UniProt Q03281); experiment: split reporter
[2] = target: Heh1-VN (budding yeast (endogenously tagged)) (UniProt Q03707); experiment: split reporter
Sequence of UniProt Q03707 (Q03707 whole entry): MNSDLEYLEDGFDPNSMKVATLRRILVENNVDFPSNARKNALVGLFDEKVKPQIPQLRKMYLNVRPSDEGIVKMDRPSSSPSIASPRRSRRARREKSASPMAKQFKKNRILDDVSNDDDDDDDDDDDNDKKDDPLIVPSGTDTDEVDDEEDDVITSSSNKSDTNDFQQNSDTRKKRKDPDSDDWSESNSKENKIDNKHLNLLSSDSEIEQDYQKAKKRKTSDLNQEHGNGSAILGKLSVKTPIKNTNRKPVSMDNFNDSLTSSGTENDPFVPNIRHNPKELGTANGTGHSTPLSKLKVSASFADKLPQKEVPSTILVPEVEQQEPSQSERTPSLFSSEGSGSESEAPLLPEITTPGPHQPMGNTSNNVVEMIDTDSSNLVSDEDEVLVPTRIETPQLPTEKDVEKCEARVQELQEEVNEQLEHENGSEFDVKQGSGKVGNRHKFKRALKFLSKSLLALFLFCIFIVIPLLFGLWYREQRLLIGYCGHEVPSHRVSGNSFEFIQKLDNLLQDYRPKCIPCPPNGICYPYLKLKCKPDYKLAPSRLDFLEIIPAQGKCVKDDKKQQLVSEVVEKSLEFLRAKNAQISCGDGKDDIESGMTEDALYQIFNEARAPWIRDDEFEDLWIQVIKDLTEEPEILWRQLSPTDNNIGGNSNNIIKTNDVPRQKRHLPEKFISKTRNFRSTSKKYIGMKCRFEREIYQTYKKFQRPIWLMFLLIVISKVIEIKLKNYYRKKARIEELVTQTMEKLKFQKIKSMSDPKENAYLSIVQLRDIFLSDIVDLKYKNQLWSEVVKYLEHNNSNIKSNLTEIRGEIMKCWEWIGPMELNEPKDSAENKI

Sequence of UniProt Q03281 (Q03281 whole entry): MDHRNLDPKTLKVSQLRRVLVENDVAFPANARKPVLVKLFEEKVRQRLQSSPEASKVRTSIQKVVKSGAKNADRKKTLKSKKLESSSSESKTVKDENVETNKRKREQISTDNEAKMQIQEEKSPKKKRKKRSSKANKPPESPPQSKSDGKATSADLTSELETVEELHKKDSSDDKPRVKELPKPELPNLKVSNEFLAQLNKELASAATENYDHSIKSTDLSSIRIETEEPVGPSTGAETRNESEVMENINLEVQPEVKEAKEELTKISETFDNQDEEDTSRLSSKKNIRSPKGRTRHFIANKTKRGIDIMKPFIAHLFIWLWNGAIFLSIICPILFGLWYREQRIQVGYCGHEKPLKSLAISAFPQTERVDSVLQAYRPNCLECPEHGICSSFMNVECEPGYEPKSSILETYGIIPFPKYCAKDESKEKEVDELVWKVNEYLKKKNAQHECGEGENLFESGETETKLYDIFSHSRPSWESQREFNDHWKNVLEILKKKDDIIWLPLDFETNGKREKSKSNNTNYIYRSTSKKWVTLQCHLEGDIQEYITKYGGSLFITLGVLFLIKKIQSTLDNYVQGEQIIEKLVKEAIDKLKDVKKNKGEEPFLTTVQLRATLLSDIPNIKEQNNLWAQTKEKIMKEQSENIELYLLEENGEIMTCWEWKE

Chm7-VC (natural protein)
percent of cells with a BiFC focus [1]: 3% | percent of cells with a BiFC focus [2]: 28%
